Publication PMC1807944
Values joined by “and” are separate entries in the source; they are usually repeats but may differ in a detail not shown here. Equal entries are not always repeated.

Experiments:
[1] = target: HIV-1 integrase (IN), monomer E (HIV-1) (UniProt P04585); experiment: SAXS titration
HIV-1 integrase (HIV-1) = experiment: SAXS

“AAAAAAAAAAAAAAAAAAAAA (double strand) [ds A21-T21]” gave a Kd [1] of 40 nM.

For HIV-1 integrase (enzyme), the stoichiometry N (HIV-1 integrase (HIV-1)) was 2 and 4.
